Data as given in US20240400654A1.
Changes are numbered by the printed parent chain. Numbers in names are those of the source. Where “and” joins values, the source holds several entries; their conditions need not be identical. Identical values can stand only once.

B1: KB001 mouse Fab variant VL A56R (Fab, V domains shown)
VH: EVQLKQSGPGLVAPSQSLSITCTVSGFSLSIYSVHWVRQPPGKGLEWLGMIWGGGSSDYNSALKSRLSISKDNSKSQVFLKMNSLQTDDTAMYYCARNGNFYAMDYWGQGTSVTVSS
VL: QIVLTQSPAIMSASLGERVTMTCTASSSVSSSFLHWYQQKPGSSPQLWIYSTSNLRSGVPARFSGSGSGTSYSLTISSMEAEDAATYYCHQYHHSPYIYTFGGGTKLEIK
B2: KB001 mouse Fab variant VL Q91M (Fab, V domains shown)
VH: B1 VH
VL: B1 VL with R56A, Q91M
B3: KB001 mouse Fab variant VL A56S (Fab, V domains shown)
VH: B1 VH
VL: B1 VL with R56S
B4: KB001 mouse Fab variant VL S95H (Fab, V domains shown)
VH: B1 VH
VL: B1 VL with R56A, S95H
B5: KB001 mouse Fab variant VL Q91E (Fab, V domains shown)
VH: B1 VH
VL: B1 VL with R56A, Q91E
B6: KB001 mouse Fab variant VL S95W (Fab, V domains shown)
VH: B1 VH
VL: B1 VL with R56A, S95W
B7: KB001 mouse Fab variant VL H93N (Fab, V domains shown)
VH: B1 VH
VL: B1 VL with R56A, H93N
B8: KB001 mouse Fab variant VL Y97R (Fab, V domains shown)
VH: B1 VH
VL: B1 VL with R56A, Y97R
B9: KB001 mouse Fab variant VL S95A (Fab, V domains shown)
VH: B1 VH
VL: B1 VL with R56A, S95A
B10: KB001 mouse Fab variant VL S57L (Fab, V domains shown)
VH: B1 VH
VL: B1 VL with R56A, S57L
B11: KB001 mouse Fab variant VL S95Y (Fab, V domains shown)
VH: B1 VH
VL: B1 VL with R56A, S95Y
B12: KB001 mouse Fab variant VL S57I (Fab, V domains shown)
VH: B1 VH
VL: B1 VL with R56A, S57I
B13: KB001 mouse Fab variant VL H94Y (Fab, V domains shown)
VH: B1 VH
VL: B1 VL with R56A, H94Y
B14: KB001 mouse Fab variant VL S57R (Fab, V domains shown)
VH: B1 VH
VL: B1 VL with R56A, S57R
B15: KB001 mouse Fab variant VL S57Q (Fab, V domains shown)
VH: B1 VH
VL: B1 VL with R56A, S57Q
B16: KB001 mouse Fab variant VL S57A (Fab, V domains shown)
VH: B1 VH
VL: B1 VL with R56A, S57A
B17: KB001 mouse Fab variant VL S95I (Fab, V domains shown)
VH: B1 VH
VL: B1 VL with R56A, S95I
B18: KB001 mouse Fab variant VL H94F (Fab, V domains shown)
VH: B1 VH
VL: B1 VL with R56A, H94F
B19: KB001 mouse Fab variant VL S57E (Fab, V domains shown)
VH: B1 VH
VL: B1 VL with R56A, S57E
B20: KB001 mouse Fab variant VL S57W (Fab, V domains shown)
VH: B1 VH
VL: B1 VL with R56A, S57W
B21: KB001 mouse Fab variant VL S57M (Fab, V domains shown)
VH: B1 VH
VL: B1 VL with R56A, S57M
B22: KB001 mouse Fab variant VL Y92D (Fab, V domains shown)
VH: B1 VH
VL: B1 VL with R56A, Y92D
B23: KB001 mouse Fab variant VL S95C (Fab, V domains shown)
VH: B1 VH
VL: B1 VL with R56A, S95C
B24: KB001 mouse Fab variant VL S57F (Fab, V domains shown)
VH: B1 VH
VL: B1 VL with R56A, S57F
B25: KB001 mouse Fab variant VL Y97Q (Fab, V domains shown)
VH: B1 VH
VL: B1 VL with R56A, Y97Q
B26: KB001 mouse Fab variant VL S95Q (Fab, V domains shown)
VH: B1 VH
VL: B1 VL with R56A, S95Q
B27: KB001 mouse Fab variant VL Y97S (Fab, V domains shown)
VH: B1 VH
VL: B1 VL with R56A, Y97S
B28: KB001 mouse Fab variant VL A56P (Fab, V domains shown)
VH: B1 VH
VL: B1 VL with R56P
B29: KB001 mouse Fab variant VL S95E (Fab, V domains shown)
VH: B1 VH
VL: B1 VL with R56A, S95E
B30: KB001 mouse Fab variant VL Y92N (Fab, V domains shown)
VH: B1 VH
VL: B1 VL with R56A, Y92N
B31: KB001 mouse Fab variant VL S95N (Fab, V domains shown)
VH: B1 VH
VL: B1 VL with R56A, S95N
B32: KB001 mouse Fab variant VL S95F (Fab, V domains shown)
VH: B1 VH
VL: B1 VL with R56A, S95F
B33: KB001 mouse Fab variant VL A56M (Fab, V domains shown)
VH: B1 VH
VL: B1 VL with R56M
B34: KB001 mouse Fab variant VL A56V (Fab, V domains shown)
VH: B1 VH
VL: B1 VL with R56V
B35: KB001 parental mouse Fab (FASEBA), WT clone (Fab, V domains shown)
VH: B1 VH
VL: B1 VL with R56A
B36: KB001 mouse Fab variant VL Y97H (Fab, V domains shown)
VH: B1 VH
VL: B1 VL with R56A, Y97H
B37: KB001 mouse Fab variant VL S57N (Fab, V domains shown)
VH: B1 VH
VL: B1 VL with R56A, S57N
B38: KB001 mouse Fab variant VL S57K (Fab, V domains shown)
VH: B1 VH
VL: B1 VL with R56A, S57K
B39: KB001 mouse Fab variant VL H90W (Fab, V domains shown)
VH: B1 VH
VL: B1 VL with R56A, H90W
B40: KB001 mouse Fab variant VL S95T (Fab, V domains shown)
VH: B1 VH
VL: B1 VL with R56A, S95T
B41: KB001 mouse Fab variant VL H90L (Fab, V domains shown)
VH: B1 VH
VL: B1 VL with R56A, H90L

Legend:
[1] = target: HRgpA-6H (Porphyromonas gingivalis) (UniProt P28784); assay: ELISA on coated HRgpA-6H, OD relative to parental Fab
Chain of UniProt P28784 (P28784 228-860 limits assumed): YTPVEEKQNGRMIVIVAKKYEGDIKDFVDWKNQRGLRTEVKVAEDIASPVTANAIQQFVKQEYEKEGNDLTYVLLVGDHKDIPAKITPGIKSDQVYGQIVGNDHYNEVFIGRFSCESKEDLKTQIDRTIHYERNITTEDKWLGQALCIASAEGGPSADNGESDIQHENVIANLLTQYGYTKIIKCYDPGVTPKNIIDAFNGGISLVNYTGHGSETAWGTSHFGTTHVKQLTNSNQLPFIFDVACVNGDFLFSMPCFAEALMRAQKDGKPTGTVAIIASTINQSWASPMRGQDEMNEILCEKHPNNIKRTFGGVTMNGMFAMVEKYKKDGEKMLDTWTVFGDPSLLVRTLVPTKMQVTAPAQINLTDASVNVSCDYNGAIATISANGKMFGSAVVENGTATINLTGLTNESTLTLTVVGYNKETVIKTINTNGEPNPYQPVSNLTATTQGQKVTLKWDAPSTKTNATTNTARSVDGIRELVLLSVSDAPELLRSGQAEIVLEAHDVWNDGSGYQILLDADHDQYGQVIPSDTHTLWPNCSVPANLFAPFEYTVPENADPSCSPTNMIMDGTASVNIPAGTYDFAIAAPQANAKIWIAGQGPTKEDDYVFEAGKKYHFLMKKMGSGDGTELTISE

[2] = target: HRgpA-6H (Porphyromonas gingivalis) (UniProt P28784); assay: ELISA, FASEBA Fab supernatant on coated HRgpA-6H

Binder	Ratio OD(Variant)/OD(WT) [1]	OD450 nm [2]
B1	0.893 fold and 0.9 fold and 0.921 fold	0.728 and 0.734 and 0.751
B2	0.879 fold	0.757
B3	0.947 fold and 0.921 fold and 0.949 fold	0.772 and 0.751 and 0.774
B4	0.871 fold	0.8
B5	0.823 fold and 0.806 fold and 0.814 fold	0.709 and 0.694 and 0.701
B6	0.875 fold and 0.86 fold	0.804 and 0.79
B7	0.91 fold	0.857
B8	0.975 fold	0.769
B9	0.904 fold and 0.949 fold	0.83 and 0.872
B10	0.958 fold	0.781
B11	0.9 fold	0.827
B12	0.97 fold	0.791
B13	0.942 fold	0.865
B14	0.915 fold	0.746
B15	0.807 fold	0.658
B16	0.988 fold	0.806
B17	0.921 fold and 0.889 fold and 0.861 fold	0.846 and 0.817 and 0.791
B18	0.838 fold	0.77
B19	0.921 fold	0.751
B20	0.961 fold	0.784
B21	0.914 fold	0.745

Binder	Ratio OD(Variant)/OD(WT) [1]	OD450 nm [2]
B22	0.805 fold	0.758
B23	0.924 fold	0.849
B24	0.963 fold and 0.965 fold and 0.977 fold	0.785 and 0.787 and 0.797
B25	0.871 fold	0.687
B26	0.972 fold	0.893
B27	0.802 fold	0.633
B28	0.917 fold	0.748
B29	0.931 fold and 0.893 fold	0.855 and 0.82
B30	0.821 fold	0.773
B31	0.94 fold and 0.962 fold	0.863 and 0.884
B32	0.911 fold	0.837
B33	0.983 fold and 0.86 fold	0.802 and 0.701
B34	0.974 fold and 0.975 fold	0.794 and 0.795
B35	0.98 fold and 0.968 fold	0.9 and 0.889
B36	0.982 fold	0.775
B37	0.997 fold	0.813
B38	0.873 fold	0.712
B39	0.886 fold	0.763
B40	0.948 fold	0.871
B41	0.911 fold and 0.806 fold	0.785 and 0.694
